Assays:
Format in all cases: biochemical
[1] = biological target: T1, SGK1 (Homo sapiens, UniProt O00141, S422D); test: Activity of SGK1 toward synthetic peptides related to Crosstide; settings: each peptide 30 μM, average of two experiments
T1 construct: made in house; host or cells: human embryonic kidney 293 cells (pEBG-2T vector)
T1 sequence (O00141 61-431 S422D): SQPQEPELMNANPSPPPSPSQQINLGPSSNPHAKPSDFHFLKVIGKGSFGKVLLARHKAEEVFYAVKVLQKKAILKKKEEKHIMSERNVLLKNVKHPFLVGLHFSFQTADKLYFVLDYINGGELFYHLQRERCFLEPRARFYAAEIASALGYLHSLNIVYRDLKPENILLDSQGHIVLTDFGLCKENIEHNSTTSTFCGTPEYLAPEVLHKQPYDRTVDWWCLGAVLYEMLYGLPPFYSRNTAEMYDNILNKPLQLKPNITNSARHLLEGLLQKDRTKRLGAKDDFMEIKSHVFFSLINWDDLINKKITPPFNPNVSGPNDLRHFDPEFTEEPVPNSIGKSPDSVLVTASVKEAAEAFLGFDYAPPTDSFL

[2] = biological target: T2, PKBα (Homo sapiens, UniProt P31749); test: Activity of PKBα towards synthetic peptides related to Crosstide; settings: GST-PKBα from 293 cells activated by PDK1; each peptide 30 μM
T2 construct: pEBG-PKBa expressing full length PKBα; made in house; host or cells: 293 cells (pEBG-PKBα)
T2 sequence (P31749 whole entry, species assumed): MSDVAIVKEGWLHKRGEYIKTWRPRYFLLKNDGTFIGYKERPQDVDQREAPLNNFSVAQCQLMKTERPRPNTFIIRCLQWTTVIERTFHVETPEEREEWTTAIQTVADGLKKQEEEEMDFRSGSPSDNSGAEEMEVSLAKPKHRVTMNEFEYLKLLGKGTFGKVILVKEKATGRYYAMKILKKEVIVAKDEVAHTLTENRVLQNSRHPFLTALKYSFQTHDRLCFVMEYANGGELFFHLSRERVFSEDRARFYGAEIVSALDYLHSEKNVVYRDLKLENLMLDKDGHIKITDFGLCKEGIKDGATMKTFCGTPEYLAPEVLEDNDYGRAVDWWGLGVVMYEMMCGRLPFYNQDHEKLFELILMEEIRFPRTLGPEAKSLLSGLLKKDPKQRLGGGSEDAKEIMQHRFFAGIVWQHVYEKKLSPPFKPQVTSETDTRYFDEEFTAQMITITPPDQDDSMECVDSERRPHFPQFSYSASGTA

[3] = biological target: T3, SGK (Homo sapiens, UniProt O00141, S422D); test: Activity of SGK towards synthetic peptides related to Crosstide; settings: GST-ΔN-SGK from 293 cells activated by PDK1; each peptide 30 μM
T3 construct: made in house; host or cells: human embryonic kidney 293 cells (pEBG-2T vector)
T3 sequence (O00141 61-431 S422D): T1 sequence (O00141 61-431 S422D)
Method: Phosphorylation and assay of SGK. Phosphorylation was carried out at 30° C. in 50 μl incubations containing 50 mM Tris/HCl pH 7.5, 0.1 mM EGTA, 0.1% (v/v) 2-mercaptoethanol, 2.5 μM PKI, 1 μM microcystin-LR, 10 mM magnesium chloride and 100 μM ATP. Where indicated lipid vesicles containing phosphatidylcholine (100 μM), phosphatidyl serine (100 μM) and PtdIns(3,4,5)P3 (1 μM) were also included. SGK activity was assayed exactly as described for PKB [6] using the peptide […] (SEQ. ID. NO:30) (“Crosstide”) at 30 μM as substrate. One unit of activity (U) was that amount which catalysed the phosphorylation of […] of Crosstide in one min.

[4] = biological target: T4, SGK3 (Homo sapiens, UniProt Q96BR1, S486D); test: Activity of SGK3 toward synthetic peptides related to Crosstide; settings: each peptide 30 μM, average of two experiments
T4 construct: SGK3 lacking the N-terminal 52 residues (ΔN-SGK3[53–429]); made in house; host or cells: 293 cells (pEBG-2T-2 vector)
T4 sequence (Q96BR1 120-496 S486D): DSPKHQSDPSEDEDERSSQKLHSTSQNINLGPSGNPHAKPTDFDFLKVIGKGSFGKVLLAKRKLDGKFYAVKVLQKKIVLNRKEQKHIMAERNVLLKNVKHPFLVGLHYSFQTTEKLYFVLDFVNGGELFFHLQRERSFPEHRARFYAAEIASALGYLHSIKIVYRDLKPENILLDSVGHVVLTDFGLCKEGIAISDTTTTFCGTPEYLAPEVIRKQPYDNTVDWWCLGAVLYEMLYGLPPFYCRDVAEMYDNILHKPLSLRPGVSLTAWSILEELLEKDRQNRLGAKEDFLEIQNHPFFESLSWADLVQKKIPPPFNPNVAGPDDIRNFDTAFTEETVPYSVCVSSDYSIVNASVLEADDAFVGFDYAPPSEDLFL

[5] = biological target: T5, SGK2 (Homo sapiens, UniProt Q9HBY8, S356D); test: Activity of SGK2 toward synthetic peptides related to Crosstide; settings: each peptide 30 μM, average of two experiments
T5 construct: pEBG-SGK2α expressing full length of SGK2α; made in house; host or cells: 293 cells (pEBG-2T-2 vector)
T5 sequence (Q9HBY8 1-367 S356D): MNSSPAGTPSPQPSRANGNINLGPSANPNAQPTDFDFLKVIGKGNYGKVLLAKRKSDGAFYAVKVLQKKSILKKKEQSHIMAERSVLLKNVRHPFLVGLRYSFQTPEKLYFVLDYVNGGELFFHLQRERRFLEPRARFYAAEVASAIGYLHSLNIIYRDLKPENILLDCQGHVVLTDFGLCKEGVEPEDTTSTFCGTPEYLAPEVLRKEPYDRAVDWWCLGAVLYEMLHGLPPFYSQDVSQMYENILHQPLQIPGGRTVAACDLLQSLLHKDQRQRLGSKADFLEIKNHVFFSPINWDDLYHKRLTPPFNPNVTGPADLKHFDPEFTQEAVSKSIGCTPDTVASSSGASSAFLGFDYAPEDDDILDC
Method: Each GST-SGK isoform (0.4 μg) was incubated for 20 min at 30° C. with protein phosphatase 2A (PP2A, 30 mU/ml) in a 10 μl incubation containing 20 mM Tris/HCl, pH 7.5, 0.1% (v/v) 2-mercaptoethanol, 0.1 mM EGTA and 1 mg/ml bovine serum albumin. After addition of microcystin-LR to 1 μM to inactivate PP2A, SGK (0.4 μg) was phosphorylated for 30 min at 30° C. in a mixture (20 μl) containing 50 mM Tris/HCl, pH 7.5, 10 mM MgCl2, 0.1% (v/v) 2-mercaptoethanol, 0.1 mM EGTA, GST-PDK1 (0.03–300 ng) diluted in Buffer C and 100 μM unlabelled ATP. […] ID. NO:30) and 4.2 μM of residues 5–24 of the specific protein inhibitor of adenosine 3′5′ cyclic monophosphate-dependent protein kinase. After 10 min at 30° C., the reactions were terminated by spotting aliquots on to P81 phosphocellulose paper, followed by immediate immersion in 75 mM phosphoric acid. The papers were washed, dried and analysed. One unit (U) of SGK was that amount which phosphorylated 1 nmole of Crosstide in one min.

[6] = GST-ΔN-SGK1[S422D] from 293 cells
[7] = GST-ΔN-SGK3[S419D] from 293 cells
[8] = GST-SGK2α[S356D] from 293 cells

| Substance | SGK1 activity % relative to peptide 1 (Crosstide) [1, 6] [%] | PKBα activity relative to peptide 1 (Crosstide) [2] [%] | SGK activity relative to peptide 1 (Crosstide) [3] [%] | SGK3 activity % relative to peptide 1 (Crosstide) [4, 7] [%] | SGK2 activity % relative to peptide 1 (Crosstide) [5, 8] [%] | SGK1 activity % relative to peptide 1 (Crosstide) ([1]; […]) [%] | SGK3 activity % relative to peptide 1 (Crosstide) ([4]; […]) [%] | SGK2 activity % relative to peptide 1 (Crosstide) ([5]; […]) [%] |
| --- | --- | --- | --- | --- | --- | --- | --- | --- |
| RPRTSSL [Peptide 11, ID; NO: 40] | 108 | 69 | 135 | 113 | 185 | – | – | – |
| KPRTSSF [Peptide 8, ID; NO: 37] | <1 | 6 | 2 | <1 | <1 | – | – | – |
| RPRTSAF [Peptide 3, ID; NO: 32] | <1 | <1 | <1 | <1 | <1 | – | – | – |
| RPRTSSK [Peptide 14, ID; NO: 43] | 84 | 48 | 146 | 200 | 128 | – | – | – |
| RPRTSSV [Peptide 12, ID; NO: 41] | 90 | 67 | 131 | 139 | 124 | – | – | – |
| PRTSSF [Peptide 4, ID; NO: 33] | <1 | <1 | <1 | <1 | <1 | – | – | – |
| RPRTSSA [Peptide 13, ID; NO: 42] | 49 | 26 | 107 | 123 | 82 | – | – | – |
| RPRTSTF [Peptide 6, ID; NO: 35] | 129 | 208 | 156 | 156 | 192 | – | – | – |
| GRPRTSSFAEG [Peptide 1, ID; NO: 30, reference compound] | 100 | 100 | 100 | 100 | 100 | – | – | – |
| RPRTSSF [Peptide 2, ID; NO: 39] | 135 | 160 | 154 | 137 | 182 | – | – | – |
| RPRAATF [Peptide 7] | – | 55 | 73 | – | – | 44 | 56 | 61 |
| RPKTSSF [Peptide 9, ID; NO: 38] | 11 | 26 | 49 | 48 | 8 | – | – | – |
| RPRTSS [Peptide 5, ID; NO: 31] | 5.1 | <1 | 10 | 18 | 8 | – | – | – |
| RPRTSSE [Peptide 15, ID; NO: 44] | 28 | 21 | 84 | 67 | 34 | – | – | – |
